Results taken from patent US20100210517A1 (RAPTOR PHARMACEUTICAL, published 2010).

T1: MAT CR12 (human, UniProt Q9Y5Y6 452-524)
T1 construct: also called ST14 CR12; matriptase CR12
T1 sequence: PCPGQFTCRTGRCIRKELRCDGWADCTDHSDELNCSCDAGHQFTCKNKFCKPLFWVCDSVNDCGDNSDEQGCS

B1: MatRAP1 truncated variant, amino acids 243-313 (71 amino acids) (ligand)
chain: FREELKHFGAKIERHNHYQKQLEIAHEWLRHAESVGDGERVSRSREKHALLEGRTKELGYTVKKHLQDLSG
notes: also called best truncated variant; not shown: N-terminal hexahistidine and S-peptide tags of pET30(+)a
B2: MegaRAP1 d3 double revertant A256K, E270K (ligand)
chain: LDRLRRVSHQGYTTEAKFEEPRVIDLWDLAQSANLTDKELEAFREELKYFKAKIEKHNHYQKQLEIAHEKLRHAESVGDGERVSRSREKHALLEGRTKELGYTVKKHLQDLSGRISRAR
notes: not shown: N-terminal hexahistidine and S-peptide tags of pET30(+)a
B3: MegaRAP1 d3 double revertant K251E, E270K (ligand)
chain: LDRLRRVSHQGYTTEAKFEEPRVIDLWDLAQSANLTDKELEAFREELKYFEAKIEAHNHYQKQLEIAHEKLRHAESVGDGERVSRSREKHALLEGRTKELGYTVKKHLQDLSGRISRAR
notes: as for B2
B4: MegaRAP1 d3 revertant A256K (ligand)
chain: LDRLRRVSHQGYTTEAKFEEPRVIDLWDLAQSANLTDKELEAFREELKYFKAKIEKHNHYQKQLEIAHEELRHAESVGDGERVSRSREKHALLEGRTKELGYTVKKHLQDLSGRISRAR
notes: as for B2
B5: MegaRAP1 d3 revertant E270K (ligand)
chain: LDRLRRVSHQGYTTEAKFEEPRVIDLWDLAQSANLTDKELEAFREELKYFKAKIEAHNHYQKQLEIAHEKLRHAESVGDGERVSRSREKHALLEGRTKELGYTVKKHLQDLSGRISRAR
notes: MegaRAP1 d3 with position 270 reverted to wild type; also called MegaRAP1 d3 E270K; E270K revertant; not shown: N-terminal hexahistidine and S-peptide tags of pET30(+)a
B6: MegaRAP1 d3 revertant K217E (ligand)
chain: LDRLRRVSHQGYTTEAEFEEPRVIDLWDLAQSANLTDKELEAFREELKYFKAKIEAHNHYQKQLEIAHEELRHAESVGDGERVSRSREKHALLEGRTKELGYTVKKHLQDLSGRISRAR
notes: MegaRAP1 d3 with position 217 reverted to wild type; not shown: N-terminal hexahistidine and S-peptide tags of pET30(+)a
B7: MegaRAP1 d3 revertant K251E (ligand)
chain: LDRLRRVSHQGYTTEAKFEEPRVIDLWDLAQSANLTDKELEAFREELKYFEAKIEAHNHYQKQLEIAHEELRHAESVGDGERVSRSREKHALLEGRTKELGYTVKKHLQDLSGRISRAR
notes: as for B2
B8: MegaRAP1 d3 revertant T213S (ligand)
chain: LDRLRRVSHQGYSTEAKFEEPRVIDLWDLAQSANLTDKELEAFREELKYFKAKIEAHNHYQKQLEIAHEELRHAESVGDGERVSRSREKHALLEGRTKELGYTVKKHLQDLSGRISRAR
notes: MegaRAP1 d3 with position 213 reverted to wild type; not shown: N-terminal hexahistidine and S-peptide tags of pET30(+)a
B9: MegaRAP1 d3 revertant Y249H (ligand)
chain: LDRLRRVSHQGYTTEAKFEEPRVIDLWDLAQSANLTDKELEAFREELKHFKAKIEAHNHYQKQLEIAHEELRHAESVGDGERVSRSREKHALLEGRTKELGYTVKKHLQDLSGRISRAR
notes: MegaRAP1 d3 with position 249 reverted to wild type; not shown: N-terminal hexahistidine and S-peptide tags of pET30(+)a
B10: RAP d3 forward mutant E217K (ligand)
chain: LDRLRRVSHQGYSTEAKFEEPRVIDLWDLAQSANLTDKELEAFREELKHFEAKIEKHNHYQKQLEIAHEKLRHAESVGDGERVSRSREKHALLEGRTKELGYTVKKHLQDLSGRISRAR
notes: The paragraph gives only the position; the change E217K follows from the mutagenic primers and the MegaRAP1 mutation set; also called single-site RAP d3 mutant at 217; not shown: N-terminal hexahistidine and S-peptide tags of pET30(+)a

What was measured:
MAT CR12 = molecular target: T1, MAT CR12; assay: binding of truncated MatRAP1 forms to MAT CR12, relative signal under isomolar conditions
Procedure: (§1) Solid phase binding assays-Purified, refolded CR protein (1 μg) was bound to Nunc Maxisorp™ 96-well plates in TBS pH 8 supplemented with 5 mM CaCl₂ (TBSC) overnight at 4° C. Wells were washed with TBSC and then blocked with TBSC containing 2% bovine serum albumin (BSA). […] Control wells contained no added ligand. As an additional control, to determine whether the absence of calcium affected binding, 10 mM EGTA was included in the incubation medium for some samples. […] Excess primary antibody was removed and wells washed before incubation with the secondary antibody, HRP-conjugated goat anti rabbit IgG (Bio-Rad). After washing, TMB substrate solutions (Bio-Rad) were added to detect HRP. Color development was stopped with 1N HCl. Absorption at 450 nm was measured with a microplate spectrophotometer (Molecular Devices). Data were plotted and Kd values derived by non-linear regression with the assumption of single-site binding (GraphPad Prism).

MAT CR23 = molecular target: T2, MAT CR23 (human); assay: solid-phase binding assay; target not given, MAT CR23 is the pair MatRAP1 was selected on
T2 construct: range 487-566; also called ST14 CR23; matriptase CR23
T2 sequence (Q9Y5Y6 487-566): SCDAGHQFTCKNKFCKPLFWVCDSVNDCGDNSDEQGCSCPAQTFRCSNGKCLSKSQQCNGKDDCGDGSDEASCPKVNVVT
Procedure: as §1

LRP1 CR3-5 [1] = molecular target: T3, LRP1 CR3-5 (human); assay: solid-phase binding assay, CR protein coated on plate, anti-RAP detection
T3 construct: range 852-973; also called L1 CR3-5
T3 sequence (Q07954 852-973): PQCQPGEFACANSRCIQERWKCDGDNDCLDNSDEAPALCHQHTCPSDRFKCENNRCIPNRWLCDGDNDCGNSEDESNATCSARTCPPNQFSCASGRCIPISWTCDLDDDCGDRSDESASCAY

LRP2 CR89 [2] = molecular target: T4, LRP2 CR89 (human, UniProt P98164 1025-1102); assay: as above
T4 construct: domain: CR89; also called YVWR; L2 CR89; not shown: N-terminal hexahistidine and S-peptide tags of pET30(+)a
T4 sequence (P98164 1025-1102): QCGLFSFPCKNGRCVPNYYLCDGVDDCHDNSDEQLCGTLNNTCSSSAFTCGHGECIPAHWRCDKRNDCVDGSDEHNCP

LRP1 CR3-5 [3] = molecular target: T3, LRP1 CR3-5; assay: solid-phase assay on coated CR protein, single-site non-linear fit
Procedure: (§2) Data were plotted and fitted by non-linear regression with the assumption of a single binding site (GraphPad Prism). Kd values with standard deviations were derived from the regression analysis.
as §1

LRP2 CR89 [4] = molecular target: T4, LRP2 CR89; assay: as above
Procedure: as §2, §1

LRP1 CR3-5 [5] = molecular target: T3, LRP1 CR3-5; assay: solid-phase assay; OD at the highest ligand concentration as percent of the highest OD of all ligands
Procedure: as §1

LRP2 CR89 [6] = molecular target: T4, LRP2 CR89; assay: as above
Procedure: as §1

LRP2 CR89 [7] = molecular target: T4, LRP2 CR89; assay: solid-phase assay on coated CR protein, anti-RAP detection, A450
Procedure: as §2, §1

Binder	Kd (LRP1 CR3-5 [3]) [nM]	Kd (LRP2 CR89 [4]) [nM]	% max (LRP1 CR3-5 [5]) [%]	% max (LRP2 CR89 [6]) [%]	binding result (LRP2 CR89 [7])	further results
B1	–	–	–	–	–	fnctn (relative binding signal under isomolar conditions) (MAT CR12): 2.7; fold increase in affinity over MatRAP1 N-42 (MAT CR23): 4 fold; fold increase in affinity over the full-length d3 variant (MAT CR23): 12 fold
B2	4	72	93	73	–	fold improvement in affinity against the E270K single-site revertant (LRP1 CR3-5 [1]): ~30 fold; fold loss of affinity against the E270K revertant (LRP2 CR89 [2]): 2 fold
B3	–	153	16	16	–	fold difference in affinity against the single-site E270K revertant (LRP2 CR89 [2]): ~20 fold
B4	–	–	6	2	no binding (tested: 100 nM)	–
B5	114	8	–	100	–	Kd (LRP1 CR3-5 [1]): 142 nM
B6	–	25	2	88	–	–
B7	–	–	2	11	no binding (tested: 100 nM)	–
B8	–	19	2	94	–	–
B9	–	–	2	35	–	–
B10	9	–	91	5	no binding (tested: 100 nM)	–
